What was measured:
[1] = molecular target: T1, MEK2 phosphorylation of ERK2 (Mus musculus, UniProt P63085, K52R); experiment: Kinase assay: MEK2 phosphorylation of ERK2 with docking domain peptides; type: biochemical, human (MEK2)
T1 construct: purchased New England Biolabs (ERK2 K52R); Upstate Biotechnology (MEK2)
Description: The following experiment was done to investigate whether docking domain peptides could inhibit MEK2 phosphorylation of ERK2. […] An autoradiogram of a representative experiment is shown (see FIG. 2A). The results were plotted as percent phoshphorylation relative to that observed in the absence of any added peptide (see FIG. 2B). ERK2 phosphorylation was analyzed by SDS-PAGE and quantified. Data are the average of two to four experiments, with triplicate data points in each experiment.
ERK2 and peptide were pre-incubated in buffer for 10 min at 37° C., then returned to ice prior to the addition of ATP and MEK2. Reactions were for 20 min at 30° C. ERK2 phosphorylation was quantified by SDS-PAGE followed by analysis of relative incorporation using a Phosphorlmager™ (Molecular Dynamics, Inc.).

MEK2 binding to GST-ERK2 = molecular target: T2, MEK2 binding to GST-ERK2 (Mus musculus, UniProt P63085); experiment: GST co-sedimentation (pull-down) assay of 35S-MEK2 binding to GST-ERK2; details: 25 μM or 100 μM peptide
T2 construct: made in house; host or cells: MEK2 by in vitro translation
Description: The purpose of the following experiment is to assess whether MAPK docking domain peptides would inhibit MEK2-binding to GST-ERK2. Radiolabeled (^35S) MEK2 and MEK2Δ4-16 proteins (˜1 pmol) were prepared by in vitro translation, partially purified by ammonium sulfate precipitation, and then incubated with 10 μg of purified GST or GST-ERK2 pre-bound to glutathione-Sepharose beads, in the absence or presence of the specified concentrations of docking domain peptides (Ste7, MEK1, MEK2, Elk-1) or mutant forms of docking domain peptides (scram7, MEK2EEAA, ElkEEG). Bead-bound protein complexes were isolated by sedimentation and resolved on 12% SDS-polyacrylamide gels. An autoradiogram of a representative experiment is illustrated (see FIG. 5A). Gels were analyzed by staining with Coomassie Blue for visualization of the bound GST fusion protein in order to verify equal amounts in each reaction and by autoradiography for visualization of the bound radiolabeled MEK2 or MEK2Δ4-16 to GST or GST-ERK2 in the absence of peptide (hatched bars), or in the presence of 25 μM (light gray bars) or 100 μM peptide (dark gray bars) (see FIG. 5B). Data are the average of three to five experiments; standard error bars are shown.
The constructs and methods used in the GST co-sedimentation (“pull-down”) experiments shown in FIG. 5 have been described elsewhere (Bardwell et al., 2001). […]

[2] = molecular target: T3, MKP-1 dephosphorylation of ERK2 (Mus musculus, UniProt P63085); experiment: Phosphatase assay: MKP-1 dephosphorylation of ERK2 with docking domain peptides; type: biochemical, human (MKP-1); details: western blot with anti-phospho-ERK2
T3 construct: purchased Upstate Biotechnology (MKP-1); no vendor is printed for the active ERK2 in this assay
Description: The following experiment was performed to assess whether MAPK-docking domain peptides would inhibit dephosphorylation of ERK2 by MKP-1. Purified, full-length, activated ERK2 (0.5 pmol) was incubated with 0.5 units of purified active MKP-1 for 20 min, in the absence or presence of the specified concentrations of the indicated peptides. ERK2 dephosphoryation was quantified by SDS-PAGE followed by western blotting and immonostaining with anti-phospho-ERK2 (Thr202/Tyr204). The lanes corresponding to ERK2 with no MKP-1 or no added peptide contain 50% of the relative amounts loaded in all other lanes (see FIG. 4A).
Phosphatase reactions (20 μl) for MKP-1 dephosphorylation of ERK2 contained 50 mM Tris-HCl (pH 7.5), 50 mM NaCl, 0.5 pmol active mouse ERK2, 0.5 units active human MKP-1 (Upstate Biotechnology) and the indicated concentration of peptide. Reactions were for 30 min. at 30° C. Reactions were analyzed by SDS-PAGE followed by western transfer and immunostaining with anti-phospho-ERK2 (Thr202/Tyro204) antibody (New England Biolabs).

## MLAEEKPVLPAATANPTIAE [MEK2 mutant peptide, MEK2 peptide with mutations in basic and hydrophobic residues]
[1]; peptide titrated into MEK2 kinase assay
  inhibition of ERK2 phosphorylation by MEK2 (in words): did not inhibit

## CC[C@H](C)[C@H](NC(=O)[C@@H]1CCCN1C(=O)[C@@H](NC(=O)[C@@H]1CCCN1C(=O)[C@H](CCCCN)NC(=O)[C@H](CCCCN)NC(=O)[C@H](CCCCN)NC(=O)[C@@H]1CCCN1C(=O)[C@@H](N)CCSC)[C@@H](C)O)C(=O)N[C@@H](CCC(N)=O)C(=O)N[C@@H](CC(C)C)C(=O)N[C@@H](CC(N)=O)C(=O)N1CCC[C@H]1C(=O)N[C@@H](C)C(=O)N1CCC[C@H]1C(=O)N[C@@H](CC(=O)O)C(=O)NCC(=O)O [MEK1, MPKKKPTPIQLNPAPDG]
[1]; 1 μM inactive ERK2, 0.1 units active MEK2, 20 min, read-out: IC50 for inhibition of MEK2 phosphorylation of ERK2
  IC50: ~100 µM

## KGRKPRDLELPLSPS [Elk-1, docking domain peptide from Elk-1 residues 312-326]
MEK2 binding to GST-ERK2
  inhibition of MEK2 protein co-sedimentation with GST-ERK2 (in words): inhibited
[2]
  inhibition of MKP-1 mediated dephosphorylation of phospho-ERK2 (in words): dose-dependent inhibition
